Experiments:
GST-OsbZIP46 [1] = biological target: T1, GST-OsbZIP46 (Oryza sativa, UniProt Q69TW5 1-324); test: EMSA; LightShift Chemiluminescent EMSA kit, 20 min at room temperature, 5% native polyacrylamide gel; buffer, salt and pH not stated; conditions: protein: recombinant; tags: GST (N-terminal, pGEX-6p-1); chain copies: 2
T1 sequence: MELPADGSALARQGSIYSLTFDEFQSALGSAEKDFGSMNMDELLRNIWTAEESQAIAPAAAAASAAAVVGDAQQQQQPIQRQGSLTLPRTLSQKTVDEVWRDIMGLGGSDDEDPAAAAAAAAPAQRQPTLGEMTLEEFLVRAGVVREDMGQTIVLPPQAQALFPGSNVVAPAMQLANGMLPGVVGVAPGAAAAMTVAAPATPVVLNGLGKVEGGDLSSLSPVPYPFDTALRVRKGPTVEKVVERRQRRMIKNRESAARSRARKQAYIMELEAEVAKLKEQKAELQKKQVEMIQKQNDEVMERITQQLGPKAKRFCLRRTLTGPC

GST-OsbZIP46 [2] = biological target: T1, GST-OsbZIP46; test: EMSA; labeled mutant probe; LightShift Chemiluminescent EMSA kit, 20 min at room temperature, 5% native polyacrylamide gel; buffer, salt and pH not stated; conditions: protein: recombinant; tags: GST (N-terminal, pGEX-6p-1); chain copies: 2; label: 3' biotin

B1: YUC8-Probe (YUC8/REIN7 promoter, P3 G-box) (dsDNA)
DNA 1: GTTGGAAAGCGTATTTTATTCGCAACGTGCGGTTCTTCCAGTTTCTCGGC
DNA 2: GCCGAGAAACTGGAAGAACCGCACGTTGCGAATAAAATACGCTTTCCAAC
B1: binds (GST-OsbZIP46 [1]).

B2: YUC8-Mutant Probe (dsDNA)
DNA 1: GTTGGAAAGCGTATTTTATTCGCAAAAAACGGTTCTTCCAGTTTCTCGGC
DNA 2: GCCGAGAAACTGGAAGAACCGTTTTTTGCGAATAAAATACGCTTTCCAAC
B2: no binding (GST-OsbZIP46 [2]).

— article PMC10022642, “Abscisic acid promotes auxin biosynthesis to inhibit primary root elongation in rice”
